Where “and” joins values, the source holds several entries; their conditions need not be identical. Identical values can stand only once.
biological target: T1, GPC3 on HepG2 cells (human, UniProt P51654 25-554); test: FACS on HepG2 cells
T1 construct: whole, on cells; also called glypican-3
Protocol: The desired cells were expanded to a logarithmic growth phase in a T-75 cell culture flask, the medium was removed by pipetting, and the cells were washed twice with a PBS buffer, and digested with trypsin. Then a complete medium was added to stop the digestion, and the cells were blown into a single cell suspension. After counting, the cells were centrifuged, and the cell pellet was resuspended with an FACS buffer (PBS+2% fetal bovine serum) to 2×10⁶ cells/mL. The cell resuspension solution was added to a 96-well FACS reaction plate at 50 μl/well, and a humanized antibody sample to be tested was added at 50 μl/well for incubation at 4° C. for 1 h. […] After the plate was centrifuged and washed 3 times with a PBS buffer, 100 μl of the resulting solution was assayed and analyzed by FACS (FACS Canto™, purchased from BD Biosciences). Data analysis was performed by software (FlowJo) to obtain the mean fluorescence intensity (MFI) of the cells. Then, analysis was performed by software (GraphPad Prism8), data were fitted, and EC₅₀ values were calculated.

| Binder | EC50 | Max MFI |
| --- | --- | --- |
| hAb001H1L1b (antibody, human IgG1, V domains shown, Humanized F2.169.2, H1+L1b) VH: EVQLVESGGGLVQPGGSLRLSCAASGFSFNTNAMNWVRQAPGKGLEWVGRIRSKSNNYATYYADSVKDRFTISRDDSKNSLYLQMNSLKTEDTAVYYCVRDGYYVLFAYWGQGTLVTVSS VL: DIVMTQTPLSLPVTPGEPASISCRFSQSIVNSNANTYLEWFLQKPGQSPQLLIYKVSNRFSGVPDRFSGSGSGTDFTLKISRVEAEDVGVYYCFQGSHVPFTFGQGTKLEIK | 0.918 nM | 4090 |
| GC33 IgG (antibody, V domains shown, Complete IgG form of the control antibody GC33; also called codrituzumab) VH: QVQLVQSGAEVKKPGASVKVSCKASGYTFTDYEMHWVRQAPGQGLEWMGALDPKTGDTAYSQKFKGRVTLTADKSTSTAYMELSSLTSEDTAVYYCTRFYSYTYWGQGTLVTVSS VL: DVVMTQSPLSLPVTPGEPASISCRSSQSLVHSNRNTYLHWYLQKPGQSPQLLIYKVSNRFSGVPDRFSGSGSGTDFTLKISRVEAEDVGVYYCSQNTHVPPTFGQGTKLEIKR | 1.56 nM and 1.21 nM |  |

Biological target: T2, polypeptide GC3pep of human GPC3 (Ala524-Lys563) (human)
T2 construct: Residues Ala524-Lys563 of human GPC3 (NCBI NM_004484.3); coated on the ELISA plate; also called membrane proximal polypeptide GC3pep
T2 peptide: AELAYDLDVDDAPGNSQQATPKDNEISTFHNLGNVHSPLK
Test: ELISA, coated peptide
Protocol: The plate was sealed with a plastic film and incubated at 4° C. overnight, washed twice with PBS the next day, and a blocking solution [PBS+2% (w/w) BSA] was added for blocking at room temperature for 2 h. […] After incubation at 37° C. for 2 h, the plate was washed 3 times with PBS. A horseradish peroxidase (HRP)-labeled secondary antibody (purchased from Merck, Cat. No. AP113P) was added for incubation at 37° C. for 1 h, and the plate was washed 5 times with PBS. A TMB substrate was added at 50 μL/well for incubation at room temperature for 10 min, then a stop solution (1.0M HCl) was added at 50 μL/well.

| Binder | binding result |
| --- | --- |
| F1.83.6 human-murine chimeric antibody (antibody, human IgG1, kappa, V domains shown, Chimeric) VH: QVQLQQSGPELVKPGASVKISCKASGYAFSSSWMNWVKQRPGKGLEWIGRIYPGDGDTNYNGRFKGKATLTVDKSSSTAYMQLSSLTSEDSAVYFCARGGVFTMALDHWGQGTTLTVSS VL: DIQMTQSPSSLSASLGGKVTITCKASQDINKYIAWYQHKPGKGPRLLIHYTSTLQPGIPSRFSGSGSGRDYSFSISNLEPEDIATYYCLQYDNLFTFGGGTKLEIKR | no binding (tested: 100 nM) |
| F1.2.14 human-murine chimeric antibody (antibody, human IgG1, kappa, V domains shown, Chimeric) VH: RVQLQQSGAELVKPGASVRMSCKASGYTFTAYSIEWMKQNLGKSLEWIGNFRPYNDDTKYNENFKGRATLTVEKSSATVYLELSRLTSDDSAVYYCARSGPTDYFDYWGQGTTLIVSS VL: DIQMTQSPASLSASVGETVTITCRASDNIYSYLAWYQQKQGQSPQLLVYNAKTLAEGVPSRFSGSGSVTQFSLKIISLQPEDFGTYYCQHHFGTPRTFGGGTKLEIKR | no binding (tested: 100 nM) |
| F1.57.21 human-murine chimeric antibody (antibody, human IgG1, kappa, V domains shown, Chimeric) VH: QVQLQQSGAELARPGASVKLSCKASGYTFTSYGISWVKQITGQGLEWIGEIYPRSESTYYNEKFKGKATLTADKSSSTAYMELRSLTSEDSAVYFCARDYGNIYSFAYWGQGTLVTVSA VL: DIQMTQSPASLSASVGETVTITCRTSENIYSYLAWYQQKQGKSPQLLVYNAKTLAEGVPSRFSGSGSGTQFSLKINSLQPEDFGSYYCQHHYGTPLTFGAGTKLELKR | no binding (tested: 100 nM) |
| F1.145.22 human-murine chimeric antibody (antibody, human IgG1, kappa, V domains shown, Chimeric) VH: QVQLQQSGTDLARPGASVKLSCKASGYTFTSFGISWVKQRTGQGLEWIGEIYPRSGSPYYNEKFTGKATLTADKSSSTAYMELRSLTSEDSAVYFCAKDFGSSYVFDYWGQGTALTVSS VL: DIQMTQSPASLSASVGETVTITCRASENIYSYLTWYQQKQGKSPQLLVYNAKTLAEGVPSRFSGSGSGTQFSLKINSLQPEDFGTYYCQHHYGTPPTFGTGTKLDLKR | no binding (tested: 100 nM) |
| F1.3.9 human-murine chimeric antibody (antibody, human IgG1, kappa, V domains shown, Chimeric) VH: QVQLQQPGTELVKPGASVKLSCKASGYTFTSYWIHWVKQRPGQGLEWIGNINPPNAGTNYNEKFKSKATLTVDKSSSTAYMQLSSLTSEDSAVYYCARGRWLLHDYWGQGTTLTVSS VL: DIQMTQSPASLSISVGETVTITCRASENIYSNLAWYQQKQGKSPQLLVYGTKNLAEGVPSRFSGSGSGTQYSLKINSLQSEDFGNYYCQHFWGTPYTFGGGTKLEILR | no binding (tested: 100 nM) |
| F1.62.9 human-murine chimeric antibody (antibody, human IgG1, kappa, V domains shown, Chimeric) VH: QVQLQQSDAELVKPGASVKISCKVSGYIFTDHTIHWMKQRPEQGLEWIGYIYPRDGSIKYNENFKGKATLTADKSSSATYMQLNSLTSEDSAVYFCARPIYYDYAYYFDYWGQGTTLTVSS VL: DVVMTQSPLSLPVSLGDQASISCRSRQSLVHSNGNTYLHWYLQKPGQSPKVLIYKVSNRFSGVPDRFSGSGSGTDFTLKISRVEAEDLGVYFCSQSTHVPYTFGGGTKLEIKR | no binding (tested: 100 nM) |
| F4.26.1 human-murine chimeric antibody (antibody, human IgG1, kappa, V domains shown, Chimeric) VH: QVQLKQSGPGLVQPSQSLSITCTVSGFSLTSYGVHWVRQSPGKGLEWLGVIWSSGNTDYNAVLISRLSIKKDDSKSQVFFKMNSPQVDDSAIYYCGRNGGWLLRGFMDFWGQGTSVTVSS VL: DVVMTQTPLSLPVSLGDQASISCRSSQSLLHSNGNTYLHWYLQRSGQSPNLLIYKVSNRFSGVPDRFSGGGSGTDFTLKISRVEAEDLGIYFCSQSTHVPWTFGGGTKLEIKR | no binding (tested: 100 nM) |
| F1.136.7 human-murine chimeric antibody (antibody, human IgG1, kappa, V domains shown, Chimeric) VH: EVQLQQSGPVMVKPGPSVKISCQTSGFTFTDYYIHWVKQSHGKSLEWIGLVFPYDGGTNYNQKFKDKATLTLDTSSSTAYMELNSLTSEDSAVYYCARAGGFSYALNYWGQGTSVTVSS VL: DIQMTQSPSSLSASLGGKVTITCKASQDINNYIAWYQHKPGKGPRLLIHFTSTLQPGIPSRFSGSGSGRDYSFSISNLEPEDIATYYCLQYDNLLLTFGAGTKLELKR | no binding (tested: 100 nM) |

Results, then the binder that gave them:

| binding result | Binder |
| --- | --- |
| no binding (tested: 100 nM) | F1.42.8 human-murine chimeric antibody (antibody, human IgG1, kappa, V domains shown, Chimeric) VH: HVQLQQPGAELVKPGASVKLSCKASGYTFTSYWMHWVRQRPGQGLEWIEMIHPNSGSTNYNEKFKSKATLTVDKSSSTAYMQLSSLTSEDSAVYYCARGNYNSSLYAMDYWGQGTSVTVSS VL: DIQMTQTTSSLSASLGDRVTISCSASQGISNYLNWYQQKPDGTVKLLIYYASNLHSGVPSRFSGSGSGTAYSLTISNLEPEDIATYYCQQYSILPYTFGGGTKLEIKR |
| no binding (tested: 100 nM) | F4.13.7 human-murine chimeric antibody (antibody, human IgG1, kappa, V domains shown, Chimeric) VH: QVQLQQPGAELVKPGASVKLSCKASGYTFTNNWVHWVKQRPGQGLEWTGMIHPDSGSTIYNEKFQSKATLTVDKSSSTAYMQLSSLTSEDSAVYYCARGYYDSSSYYAMDYWGQGTSVTVSS VL: NIQMTQTTSSLSASLGDRVTISCSASQGIFNYLNWYQQKPDGTVKLLIYYTSSLHSGVPSRFSGSGSGTDYSLTISNLEPEDIATYYCQQYSKLPWTFGGGTKLEIKR |
| no binding (tested: 100 nM) | F1.92.17 human-murine chimeric antibody (antibody, human IgG1, kappa, V domains shown, Chimeric) VH: EVQLQQSGPELVKPGASVKMSCKASGYTFTDYNMHWVRQSHGKSLEWIGYINPNNGDTIYNQNFKGKATLTVNKSSSTAYMELRSLTSEDSAVYYCSRTITYYYSMDYWGPGTSVTVSS VL: QIVLTQSPALMSASPGEKVTMTCSASSSVSYMYWYQQKPRSSPKPWIYLTSNLASGVPARFSGSGSGTSYSLTISSMEAEDAATYYCQQWSSNPLTFGAGTKLELKR |
| no binding (tested: 100 nM) | F1.78.24 human-murine chimeric antibody (antibody, human IgG1, kappa, V domains shown, Chimeric) VH: QVQLQQSGAELVKPGASVKMSCKASGYTFTTYPIEWMKQNHGKSLEWIGNFHPYNDDTNYNVKFKGKATLTVEKSSSTVYLELSRLTSDDSALYYCARRREYYGSFDVWGTGTTVTVSS VL: not shown |
| no binding (tested: 100 nM) | F4.18.4 human-murine chimeric antibody (antibody, human IgG1, kappa, V domains shown, Chimeric) VH: QVQLHQSGAEMAKPGASVNLSCKTSGFTFTDYGISWVKQRTRQGLEWIGDIYPRHINIYYNEKFKDKATLTADRSSSTAYMELRSMTSEDSAVYFCARRGTTGRGALDYWGQGTSLTVSS VL: DILLTQSPAILSVSPGERVSFSCRASQSIGTSIHWYQQRTNGSPRLLIKYAFESISGIPSRFGGSGSRTDFTLTINSVESEDIADYYCQQTYNWPYTFGGGTKLEIKR |
| no binding (tested: 100 nM) | F1.73.9 human-murine chimeric antibody (antibody, human IgG1, kappa, V domains shown, Chimeric) VH: QVQLKQSGAELVRPGASVKLSCKASGYTFTDYYINWVKQRPGQGLEWIARIYPGSGNTYYNEKFKGKATLTAEKSSSTAYMQFSSLTSEDSAVYFCACSTYYTMDYWGQGTSVTVSS VL: QIVLTQSPAIMSASLGERVTMTCTASSGVSSSYLHWYQQKPGSSPKLWIYTTSNLASGVPARFSGSGSGTSYSLTISSMEAEDAATYYCHQYHRSPYTFGGGTKLEIKR |
| no binding (tested: 100 nM) | F1.21.8 human-murine chimeric antibody (antibody, human IgG1, kappa, V domains shown, Chimeric) VH: EVQLQQSGPELVKPGASVKISCKTSGFLFTGHYMHWVKSSHGNILDWIGYIYPYNAISFYNQKFKGKATLTVDKSSNTAYMELRSLTSEDSAVYYCARGDYGNYVTAYWGQGTLVTVSA VL: DVLMTQTPLSLPVSLGDQASISCRSSQSIVHSSGNTYLEWYLQKPGQSPKLLIYKVSNRFSGVPDRFSGSGSGTDFTLKISRVEAEDLGVYYCFQGSHLPWTFGGGTKLDIKR |
| no binding (tested: 100 nM) | F1.111.11 human-murine chimeric antibody (antibody, human IgG1, kappa, V domains shown, Chimeric) VH: EVQLQQSGPELVKPGASVKISCKASGYTFTDYYMNWVKQSHGKSLEWIGDIYPNNGDTTYNQRFKGKATLTVDKSSSTAYMELRSLASEDSAVYYCACPYNNPFGYWGQGTLVTVSA VL: DVVMTQTPLSLPVSLGDQASISCRSSQSLVHSNGNTYLHWYLQKPGQSPKLLIYKVSNRFSGVPDRFSGSGSGTDFTLKISRVEAEDLGVYFCSQSTHVPWTFGGGTKLEIKR |
| no binding (tested: 100 nM) | F1.115.8 human-murine chimeric antibody (antibody, human IgG1, kappa, V domains shown, Chimeric) VH: EVQLQQSGPELVKPGASVKMSCKASGYTFTEYYMHWVKQSHGKSLEWIGYIYPNNGGNGYNQKFKGKATLTVDKSSSTAYMGLRSLTSEDSAVYYCVRGYYSNWYFDVWGTGTTVTVSS VL: DVLMTQTPLSLPVSLGDQASISCRSSQSIVHSNGKTYLEWYLQKPGQSPKLLIYKVSNRFSGVPDRFSGSGSGTDFTLKISRVEAEDLGVYYCFQGSHVPFTFGSGTKLEIKR |
| no binding (tested: 100 nM) | F1.110.24 human-murine chimeric antibody (antibody, human IgG1, kappa, V domains shown, Chimeric) VH: EVKLVESGGGLVQPGGSLKLSCAASGFTFSDFYMYWVRQTPEKRLEWVAFISNGGGSTYYPDTVKGRFTISRDNVKNTLYLQMSRLKSEDTAMYYCARPDTSWFAYWGQGSLVTVSA VL: DIQMTQTTSSLSASLGDRVTISCRASQDIDNYLNWYQQKPDGTVKVLISYTSRLHSGVPSRFSGSGSGTDYSLTISNLEQEDIATYFCQQGNTLPWTFGGGTKLEIKR |

Source: patent US20260116991A1 (HAINAN SIMCERE ZAIMING PHARMACEUTICAL, published 2026)
